Assay results taken from paper PMC2753473.
Like-named read-outs stand apart in the source and are kept apart here.

Key:
[1] = target: photoactivated rhodopsin (Rho*, Meta II) (bovine) (UniProt P02699); experiment: SEC
[2] = target: photoactivated rhodopsin (Rho*, Meta II) (bovine) (UniProt P02699); experiment: SEC; remark: listed apart in the source

photoactivated rhodopsin (Rho*, Meta II) (bovine), sequence (P02699 whole entry): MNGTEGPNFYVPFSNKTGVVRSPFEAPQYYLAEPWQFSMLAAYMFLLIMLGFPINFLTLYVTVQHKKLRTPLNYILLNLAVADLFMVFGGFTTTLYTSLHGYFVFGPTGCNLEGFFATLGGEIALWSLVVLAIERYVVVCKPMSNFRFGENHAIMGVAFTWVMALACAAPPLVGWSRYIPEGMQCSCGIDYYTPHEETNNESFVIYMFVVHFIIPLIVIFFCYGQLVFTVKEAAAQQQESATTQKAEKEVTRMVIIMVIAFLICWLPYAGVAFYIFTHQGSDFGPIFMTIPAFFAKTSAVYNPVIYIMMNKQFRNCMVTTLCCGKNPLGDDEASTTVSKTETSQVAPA

transducin (Gt), rod cell-specific heterotrimeric G protein (from UniProt P04695 1-350; P62871 1-340; P02698 1-74) (complex)
stoichiometry N (Rho*:Gt molar ratio) [1]: 1
stoichiometry N (Rho*:Gt molar ratio) [2]: 1
